Laboratory results reported in patent publication US5840673, “Insulin-like growth factor binding protein 3 (IGF-BP3) in treatment of p53-related tumors” (Bristol-Myers Squibb Company).

Biological target: p53 (His-tagged, wild type) (Homo sapiens, UniProt P04637 P04637:1-393)
Test: EMSA; binding potentiated and supershifted by PAb421
Details: tags: His fusion, baculovirus-produced; chain copies: 4

p53 (His-tagged, wild type), sequence (P04637 whole entry, one chain of several): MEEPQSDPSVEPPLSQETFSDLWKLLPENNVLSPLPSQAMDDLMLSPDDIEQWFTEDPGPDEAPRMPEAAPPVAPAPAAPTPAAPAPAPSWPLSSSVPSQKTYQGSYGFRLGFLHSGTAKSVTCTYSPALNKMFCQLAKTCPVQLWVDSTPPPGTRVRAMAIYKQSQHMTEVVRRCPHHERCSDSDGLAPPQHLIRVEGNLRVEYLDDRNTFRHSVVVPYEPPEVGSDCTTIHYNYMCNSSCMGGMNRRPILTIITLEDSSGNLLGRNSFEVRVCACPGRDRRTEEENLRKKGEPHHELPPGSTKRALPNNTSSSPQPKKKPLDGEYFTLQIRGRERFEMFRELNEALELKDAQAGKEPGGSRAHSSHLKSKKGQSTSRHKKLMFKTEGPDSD

B1: IGF-BP3 Box A (dsDNA)
DNA 1: TCGAGAAAACAAGCCACCAACATGCTTGC
DNA 2: GCAAGCATGTTGGTGGCTTGTTTTCTCGA
binding result: binds

B2: IGF-BP3 Box B (dsDNA)
DNA 1: TCGAGAGGAGGGCAAGACCTGCCAAGCCTGGGTA
DNA 2: TACCCAGGCTTGGCAGGTCTTGCCCTCCTCTCGA
binding result: binds
